Values quoted from earlier work, collected in PMC4715488.

Molecular target: GPP130 (Homo sapiens) (UniProt O00461)
Chain of UniProt O00461 (O00461 2-696): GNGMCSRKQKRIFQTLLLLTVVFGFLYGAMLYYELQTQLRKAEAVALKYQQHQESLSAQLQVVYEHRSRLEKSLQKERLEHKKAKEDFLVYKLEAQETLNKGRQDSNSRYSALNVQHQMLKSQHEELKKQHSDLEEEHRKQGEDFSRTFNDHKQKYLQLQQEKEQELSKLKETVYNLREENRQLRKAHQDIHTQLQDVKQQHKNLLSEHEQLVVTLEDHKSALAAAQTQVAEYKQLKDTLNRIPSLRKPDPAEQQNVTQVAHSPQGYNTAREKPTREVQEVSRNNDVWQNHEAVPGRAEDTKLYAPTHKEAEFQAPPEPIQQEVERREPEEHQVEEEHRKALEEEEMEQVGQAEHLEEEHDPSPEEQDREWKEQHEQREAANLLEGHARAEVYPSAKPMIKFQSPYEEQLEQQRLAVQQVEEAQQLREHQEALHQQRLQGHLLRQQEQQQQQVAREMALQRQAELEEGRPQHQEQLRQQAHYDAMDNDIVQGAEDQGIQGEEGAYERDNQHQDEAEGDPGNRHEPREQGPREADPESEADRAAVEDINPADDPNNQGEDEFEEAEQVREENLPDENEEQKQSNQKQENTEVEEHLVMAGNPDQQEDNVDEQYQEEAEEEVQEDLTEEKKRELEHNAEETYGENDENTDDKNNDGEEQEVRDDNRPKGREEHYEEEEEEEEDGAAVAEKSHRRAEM

Shiga toxin 1 B subunit (STx1B) (from UniProt Q32GM0)
Kd: 0.15 µM
